In doi:10.1101/245167 (bioRxiv, 2018):

T1: Hec1 (as subunit of the wild-type Ndc80 complex) (human, UniProt O14777 1-642)
T1 sequence: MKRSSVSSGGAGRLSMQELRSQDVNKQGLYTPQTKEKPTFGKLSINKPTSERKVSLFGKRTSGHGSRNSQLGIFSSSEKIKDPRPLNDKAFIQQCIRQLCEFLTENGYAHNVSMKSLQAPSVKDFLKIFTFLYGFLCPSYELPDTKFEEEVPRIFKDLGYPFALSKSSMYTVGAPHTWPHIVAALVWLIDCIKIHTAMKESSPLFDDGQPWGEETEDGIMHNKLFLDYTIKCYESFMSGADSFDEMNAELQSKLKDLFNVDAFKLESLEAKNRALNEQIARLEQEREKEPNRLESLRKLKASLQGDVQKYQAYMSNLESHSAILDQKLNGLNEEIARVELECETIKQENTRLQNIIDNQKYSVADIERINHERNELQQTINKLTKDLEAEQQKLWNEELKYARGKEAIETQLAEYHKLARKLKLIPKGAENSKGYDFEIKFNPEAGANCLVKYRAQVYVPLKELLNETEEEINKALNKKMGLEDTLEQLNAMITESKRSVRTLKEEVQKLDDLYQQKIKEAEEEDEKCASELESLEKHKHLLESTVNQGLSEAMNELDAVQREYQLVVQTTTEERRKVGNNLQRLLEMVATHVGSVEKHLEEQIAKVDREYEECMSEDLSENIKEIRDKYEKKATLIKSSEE

T2: Nuf2 (as subunit of the wild-type Ndc80 complex) (human, UniProt Q9BZD4 1-464)
T2 sequence: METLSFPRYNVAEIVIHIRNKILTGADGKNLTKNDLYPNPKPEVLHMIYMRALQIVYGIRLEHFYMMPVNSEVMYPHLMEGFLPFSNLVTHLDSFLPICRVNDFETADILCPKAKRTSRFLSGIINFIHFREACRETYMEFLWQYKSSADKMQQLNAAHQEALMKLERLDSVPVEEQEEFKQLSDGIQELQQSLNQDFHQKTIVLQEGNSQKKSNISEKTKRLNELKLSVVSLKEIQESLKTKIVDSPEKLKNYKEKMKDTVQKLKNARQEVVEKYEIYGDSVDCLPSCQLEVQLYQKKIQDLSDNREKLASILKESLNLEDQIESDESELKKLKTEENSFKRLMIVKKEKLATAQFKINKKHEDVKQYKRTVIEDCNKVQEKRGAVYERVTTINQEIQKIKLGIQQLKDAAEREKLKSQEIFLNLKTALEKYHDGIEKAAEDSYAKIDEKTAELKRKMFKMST

B1: Ska3 (as subunit of the wild-type Ska complex) (natural protein)
chain: MDPIRSFCGKLRSLASTLDCETARLQRALDGEESDFEDYPMRILYDLHSEVQTLKDDVNILLDKARLENQEGIDFIKATKVLMEKNSMDIMKIREYFQKYGYSPRVKKNSVHEQEAINSDPELSNCENFQKTDVKDDLSDPPVASSCISEKSPRSPQLSDFGLERYIVSQVLPNPPQAVNNYKEEPVIVTPPTKQSLVKVLKTPKCALKMDDFECVTPKLEHFGISEYTMCLNEDYTMGLKNARNNKSEEAIDTESRLNDNVFATPSPIIQQLEKSDAEYTNSPLVPTFCTPGLKIPSTKNSIALVSTNYPLSKTNSSSNDLEVEDRTSLVLNSDTCFENLTDPSSPTISSYENLLRTPTPPEVTKIPEDILQLLSKYNSNLATPIAIKAVPPSKRFLKHGQNIRDVSNKEN
B2: Ska complex^(Ska1 ΔMTBD) (full length Ska2 and Ska3 with Ska1 residues 1-131), without His-tag (complex)
chain 1: MASSDLEQLCSHVNEKIGNIKKTLSLRNCGQEPTLKTVLNKIGDEIIVINELLNKLELEIQYQEQTNNSLKELCESLEEDYKDIEHLKENVPSHLPQVTVTQSCVKGSDLDPEEPIKVEEPEPVKKPPKEQ
chain 2: MEAEVDKLELMFQKAESDLDYIQYRLEYEIKTNHPDSASEKNPVTLLKELSVIKSRYQTLYARFKPVAVEQKESKSRICATVKKTMNMIQKLQKQTDLELSPLTKEEKTAAEQFKFHMPDL
chain 3: B1 chain
B3: Spc25 (as subunit of the wild-type Ndc80 complex) (natural protein)
chain: MVEDELALFDKSINEFWNKFKSTDTSCQMAGLRDTYKDSIKAFAEKLSVKLKEEERMVEMFLEYQNQISRQNKLIQEKKDNLLKLIAEVKGKKQELEVLTANIQDLKEEYSRKKETISTANKANAERLKRLQKSADLYKDRLGLEIRKIYGEKLQFIFTNIDPKNPESPFMFSLHLNEARDYEVSDSAPHLEGLAEFQENVRKTNNFSAFLANVRKAFTATVYN
B4: Spc24-His (as subunit of the wild-type Ndc80 complex) (natural protein)
chain: MAAFRDIEEVSQGLLSLLGANRAEAQQRRLLGRHEQVVERLLETQDGAEKQLREILTMEKEVAQSLLNAKEQVHQGGVELQQLEAGLQEAGEEDTRLKASLLQLTRELEELKEIEADLERQEKEVDEDTTVTIPSAVYVAQLYHQVSKIEWDYECEPGMVKGIHHGPSVAQPIHLDSTQLSRKFISDYLWSLVDTEW

Key:
Assay in all cases: cross-linking
[1] = molecular target: T1, Hec1 (as subunit of the wild-type Ndc80 …)
[2] = molecular target: T2, Nuf2 (as subunit of the wild-type Ndc80 …)
[3] = molecular target: human Ndc80 complex (Hec1, Nuf2, Spc24-His, Spc25), wild type (human, UniProt O14777;Q9BZD4;Q8NBT2;Q9HBM1)
[4] = molecular target: B1

Binder: B1
- binding result [1]: binds
- binding result [2]: binds

Binder: B2
- binding result [3]: binds

Binder: B3
- binding result [4]: binds

Binder: B4
- binding result [4]: binds
